Experimental data: paper PMC3604778
pKd: −log10 of the molar value. Where two headings read alike, the source gives them in different places.

Experiments:
[1] = molecular target: SCM expressed on the surface of S. canis G361 (Streptococcus canis (endogenous in strain G361)); assay: radioligand binding
[2] = molecular target: SCM expressed on the surface of S. canis G361 (Streptococcus canis (endogenous in strain G361)); assay: radioligand binding; remark: listed apart in the source
[3] = molecular target: human plasminogen (human); assay: radioligand binding
[4] = molecular target: human plasminogen (human); assay: SPR

Row | Substance | percent binding of 125I-SCM to G361 bacteria [1] [%] | percent binding of 125I-SCM to G361 (1 × 10^7 bacteria) [2] [%] | percent binding of 125I-SCM to G361 (2 × 10^7 bacteria) [2] [%] | percent binding of 125I-SCM to G361 (4 × 10^6 bacteria) [2] [%] | percent binding of 125I-SCM to G361 (control without inhibitor) [2] [%] | percent binding of 125I-SCM to G361 bacteria [2] [%] | percent binding of 125I-SCM to G361 left with 1.0 µM nonlabeled SCM [2] [%] | percent binding of 125I-SCM to G361 left with 10.0 µg nonlabeled SCM [2] [%] | percent specific binding of 125I-SCM to G361 bacteria [2] [%] | percent binding of 125I-plasminogen to G361 left with 1.0 µM nonlabeled SCM [3] [%] | pKd [4]
1 | purified recombinant SCM, M-like protein of S. canis (derived from strain G361) (natural protein) | 25.7 | 13.1 | 19.3 | 6.5 | 28.7 | 23.5 | 15.8 | 4.2 | 20.5 | 41.3 | 
2 | recombinant S. canis enolase (strain G361) (from UniProt A0A2D4DNT6 1-435) (enzyme) |  |  |  |  |  |  |  |  |  |  | 6.10
